Substrate in this data set: CC(=O)N[C@H]1[C@H](Oc2ccc([N+](=O)[O-])cc2)O[C@H](CO)[C@@H](O)[C@@H]1O
Briefly: purified protein, by the assay type. Conditions: pH 8.0; 37.0 °C.

B1: R256A (Akkermansia muciniphila ATCC BAA-835; R256A) (protein)
chain: QDAKQIADSLSIPPVKAGAKQLPMPSVSGAQIKLLGADYEQLVNSKGKIAPVISDTPVNVSFKVTKDGKEAVSKDYEIMLQAPQAAQGNPKPRIIPEILQWKGGQGEYKLGNTVTIACPDKELGKLFAADMEDVLGKKVKLVAPGAKADISLSLLKGGNLGREGYRLQIARDGVRLGAAAPTGLFWGTRTLLQMLRQTPGSVPCGTAVDFPRYQLRGFMLDVARTPYPLSYLKDVIATMAWYKMNDLHLVINNNYIFHEHYVDNGHDPFKESYAAFRLESKMKGKDGTPLTARDLFYTKKEFADLVSYARKYGVNIVPEFDTPGHALSFTRLRPDLIYKGPMNHEKRRCEMLDAANPETIDLVSKVFDEYMLKDPKLGRPVFADCGVVHVGADEFYGDKEDYRHFANAVLTHALKRGYTPRIWGSLSAKPGKTPVVSKGVQMNLWSTGWMKAWEAVNQGYDVINTNDGALYIVPFAGYYRMDRNHKGLYNNWIPNRIGNETLPSGHPQLLGGTFAVWNDETDIMHTGYAPYDIWGIISGSMDVLSQKLWGTAKAPDTFEQHRELVSSIGNAPRTNPLHKWKDSQPLTVKPSSLPQKLDKPALGPNYRLTMELELTAAPEGKEQVLLAAPEGELLAVMKDGTVGFRRDDSLEFSFGAKLPVGKKVKVEIVGEPEKTSLLLDGEPAGTAVLKNFSDKSKDFSDKFKHRPKVHRSTFILPLKELGSSFQGKVFHMNVQPL
For orientation: Km means the substrate concentration at which the rate is half of its maximum. B1: the Km was found to be 1490 ± 60 µM.

B2: R592A (Akkermansia muciniphila ATCC BAA-835; R592A) (protein)
chain: QDAKQIADSLSIPPVKAGAKQLPMPSVSGAQIKLLGADYEQLVNSKGKIAPVISDTPVNVSFKVTKDGKEAVSKDYEIMLQAPQAAQGNPKPRIIPEILQWKGGQGEYKLGNTVTIACPDKELGKLFAADMEDVLGKKVKLVAPGAKADISLSLLKGGNLGREGYRLQIARDGVRLGAAAPTGLFWGTRTLLQMLRQTPGSVPCGTAVDFPRYQLRGFMLDVARTPYPLSYLKDVIRTMAWYKMNDLHLVINNNYIFHEHYVDNGHDPFKESYAAFRLESKMKGKDGTPLTARDLFYTKKEFADLVSYARKYGVNIVPEFDTPGHALSFTRLRPDLIYKGPMNHEKRRCEMLDAANPETIDLVSKVFDEYMLKDPKLGRPVFADCGVVHVGADEFYGDKEDYRHFANAVLTHALKRGYTPRIWGSLSAKPGKTPVVSKGVQMNLWSTGWMKAWEAVNQGYDVINTNDGALYIVPFAGYYRMDRNHKGLYNNWIPNRIGNETLPSGHPQLLGGTFAVWNDETDIMHTGYAPYDIWGIISGSMDVLSQKLWGTAKAPDTFEQHRELVSSIGNAPATNPLHKWKDSQPLTVKPSSLPQKLDKPALGPNYRLTMELELTAAPEGKEQVLLAAPEGELLAVMKDGTVGFRRDDSLEFSFGAKLPVGKKVKVEIVGEPEKTSLLLDGEPAGTAVLKNFSDKSKDFSDKFKHRPKVHRSTFILPLKELGSSFQGKVFHMNVQPL
Take B2: the Km worked out at 1480 ± 60 µM.

B3: Y327F+Y331F (Akkermansia muciniphila ATCC BAA-835; Y327F/Y331F) (protein)
chain: QDAKQIADSLSIPPVKAGAKQLPMPSVSGAQIKLLGADYEQLVNSKGKIAPVISDTPVNVSFKVTKDGKEAVSKDYEIMLQAPQAAQGNPKPRIIPEILQWKGGQGEYKLGNTVTIACPDKELGKLFAADMEDVLGKKVKLVAPGAKADISLSLLKGGNLGREGYRLQIARDGVRLGAAAPTGLFWGTRTLLQMLRQTPGSVPCGTAVDFPRYQLRGFMLDVARTPYPLSYLKDVIRTMAWYKMNDLHLVINNNYIFHEHYVDNGHDPFKESYAAFRLESKMKGKDGTPLTARDLFYTKKEFADLVSFARKFGVNIVPEFDTPGHALSFTRLRPDLIYKGPMNHEKRRCEMLDAANPETIDLVSKVFDEYMLKDPKLGRPVFADCGVVHVGADEFYGDKEDYRHFANAVLTHALKRGYTPRIWGSLSAKPGKTPVVSKGVQMNLWSTGWMKAWEAVNQGYDVINTNDGALYIVPFAGYYRMDRNHKGLYNNWIPNRIGNETLPSGHPQLLGGTFAVWNDETDIMHTGYAPYDIWGIISGSMDVLSQKLWGTAKAPDTFEQHRELVSSIGNAPRTNPLHKWKDSQPLTVKPSSLPQKLDKPALGPNYRLTMELELTAAPEGKEQVLLAAPEGELLAVMKDGTVGFRRDDSLEFSFGAKLPVGKKVKVEIVGEPEKTSLLLDGEPAGTAVLKNFSDKSKDFSDKFKHRPKVHRSTFILPLKELGSSFQGKVFHMNVQPL
On to B3, for which the Km was 1420 ± 60 µM.

Source of the values: paper PMC9673926, “Nucleotide binding as an allosteric regulatory mechanism for Akkermansia muciniphila β-N-acetylhexosaminidase Am2136” (Gut Microbes, 2022).
